The chains are these.
T1: DVL3, Q92997
T1 sequence (Q92997 244-331, limits assumed, looked up): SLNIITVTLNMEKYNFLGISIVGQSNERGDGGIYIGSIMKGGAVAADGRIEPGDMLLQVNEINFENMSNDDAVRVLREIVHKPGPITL

T2: PCLO, Q9Y6V0
T2 sequence (Q9Y6V0 4491-4600, limits assumed, looked up): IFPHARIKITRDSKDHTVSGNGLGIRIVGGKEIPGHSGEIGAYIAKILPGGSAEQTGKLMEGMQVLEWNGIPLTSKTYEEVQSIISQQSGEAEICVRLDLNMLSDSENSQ

From paper PMC9482650, “Quantitative fragmentomics allow affinity mapping of interactomes” (Nature Communications, 2022) come the findings set out here.

The term pKd denotes the Kd on a negative log10 scale, so that one unit is a factor of ten.

Chain of IL16_4, Q14005 (Q14005 1229-1329): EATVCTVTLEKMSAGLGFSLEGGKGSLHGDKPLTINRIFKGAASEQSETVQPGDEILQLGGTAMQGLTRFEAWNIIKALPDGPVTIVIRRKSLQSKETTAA

The target of one experiment is T1, DVL3, Q92997. The experiment is described as follows: holdup assay. More on the design: key: below the threshold = too weak to quantify, mostly under pKd 3.1 to 4. The note with it: plain residues with an end cap or a label only (N-terminal biotin on a linker: ado-ado).
With EKKTLIGIKL [GOT1L1, Q8NHS2], the pKd result is listed as “below the threshold”.

As for QSARLWETSI [ADAM22, Q9P0K1], the negative logarithm of the Kd (pKd) entry is on record as “below the threshold”.

Regarding IKAIVDLTGL [TRAF2, Q12933], the negative-log Kd (pKd) result is given as “below the threshold”.

For PRAEAEDSFL [PDGFRB, P09619], the pKd result is “below the threshold”.

For the molecule EALLQMESVA [CAVIN3, Q969G5], the pKd entry is given as “below the threshold”.

In the case of HSGYRLNDYV [CLDN14, O95500], the pKd came out at 3.66.

As to TSSMRGMDAV [RSRC2, Q7L4I2], the pKd entry is “below the threshold”.

Turning to MLSKQSESAI [FLVCR1, Q9Y5Y0], the pKd result is on record as “below the threshold”.

With TSQESEDTYL [TBC1D10A, Q9BXI6], the negative-log Kd (pKd) result is recorded as “below the threshold”.

Consider SGSLKLMTTV [DACT1, Q9NYF0], for which the pKd entry is listed as “below the threshold”.

Turning to ETQVTAETVI [TMEM225B, P0DP42], the pKd result is “below the threshold”.

For YRLAQESGLV [ABCC6, O95255], the pKd result is given as “below the threshold”.

CLREWCDAFL [BANF1, O75531]: the negative logarithm of the Kd (pKd) was 3.65.

Take RRISSLESEV [GRIN2C, Q14957]: the pKd result is given as “below the threshold”.

For QGPVETESVV [SLC45A4, Q5BKX6], the pKd entry is reported as “below the threshold”.

For SAAKVLTSMC [GHRHR, Q02643], the pKd entry is “below the threshold”.

Consider DDENIRTSDV [PLEKHA2, Q9HB19], for which the pKd entry is “below the threshold”.

In the case of KKMPSIESDV [GRIN2A, Q12879], the pKd result was “below the threshold”.

As for QSPANIYYKV [EFNB1, P52799], the pKd entry is listed as “below the threshold”.

Regarding TASPAKETSF [SLC2A7, Q6PXP3], the pKd result is reported as “below the threshold”.

On to TLPRKRMSSI [GPRC6A, Q5T6X5], for which the pKd result is “below the threshold”.

In the case of VKPQVSESKL [ACOT8, O14734], the negative-log Kd (pKd) entry was “below the threshold”.

With SNAGNTATKA [NOSTRIN, Q8IVI9], the pKd entry is listed as “below the threshold”.

For YNNCLEILRV [DCAF7, P61962], the negative-log Kd (pKd) amounted to 3.55.

Regarding PEYLGLDVPV [ERBB2, P04626], the pKd entry is given as “below the threshold”.

On to RKPKPSSSCC [RAB9A, P51151], for which the pKd result is “below the threshold”.

Turning to SARSRLSSNL [HCN2, Q9UL51], the negative logarithm of the Kd (pKd) entry is listed as “below the threshold”.

Take KKAPTNEFYA [SDC4, P31431]: the pKd entry was “below the threshold”.

As to TACCHSETVV [TGFA, P01135], the pKd entry is “below the threshold”.

With GSGAVEMESV [AQP6, Q13520], the pKd result is “below the threshold”.

Take RRLPGKETMA [GRIK2, Q13002]: the pKd entry is given as “below the threshold”.

Consider LGRSTPQSEV [DGKH, Q86XP1], for which the pKd result is “below the threshold”.

FNSYSLTGYV [CLDN2, P57739] registered a pKd of 3.81.

For the molecule PPYRHRNTVV [ERBB4, Q15303], the pKd entry was “below the threshold”.

Take LKVPPEERLI [CRB2, Q5IJ48]: the pKd result is on record as “below the threshold”.

As to TKGPRGPTRV [SAPCD1, Q5SSQ6], the pKd result is given as “below the threshold”.

On to AKPSRISTVV [IQSEC2, Q5JU85], for which the pKd entry is on record as “below the threshold”.

Another experiment has as its target IL16_4, Q14005. Kind of experiment: holdup assay. The settings on record: plain residues with an end cap or a label only (N-terminal biotin on a linker: ado-ado). The arrangement: key: below the threshold = too weak to quantify, mostly under pKd 3.1 to 4.
Turning to EKKTLIGIKL [GOT1L1, Q8NHS2], the pKd entry was “below the threshold”.

As to QSARLWETSI [ADAM22, Q9P0K1], the pKd came out at 3.47.

Take IKAIVDLTGL [TRAF2, Q12933]: the pKd result was “below the threshold”.

Take PRAEAEDSFL [PDGFRB, P09619]: the negative-log Kd (pKd) entry is reported as “below the threshold”.

On to EALLQMESVA [CAVIN3, Q969G5], for which the pKd result was “below the threshold”.

HSGYRLNDYV [CLDN14, O95500]: the pKd entry is on record as “below the threshold”.

Take TSSMRGMDAV [RSRC2, Q7L4I2]: the pKd entry is reported as “below the threshold”.

Consider MLSKQSESAI [FLVCR1, Q9Y5Y0], for which the pKd entry is “below the threshold”.

As for TSQESEDTYL [TBC1D10A, Q9BXI6], the negative logarithm of the Kd (pKd) result was “below the threshold”.

Regarding SGSLKLMTTV [DACT1, Q9NYF0], the pKd entry is recorded as “below the threshold”.

In the case of ETQVTAETVI [TMEM225B, P0DP42], the pKd result is recorded as “below the threshold”.

On to YRLAQESGLV [ABCC6, O95255], for which the pKd result is listed as “below the threshold”.

In the case of CLREWCDAFL [BANF1, O75531], the pKd entry is “below the threshold”.

As to RRISSLESEV [GRIN2C, Q14957], the pKd entry is “below the threshold”.

In the case of QGPVETESVV [SLC45A4, Q5BKX6], the pKd entry is listed as “below the threshold”.

Consider SAAKVLTSMC [GHRHR, Q02643], for which the pKd result is recorded as “below the threshold”.

In the case of DDENIRTSDV [PLEKHA2, Q9HB19], the pKd entry was “below the threshold”.

For KKMPSIESDV [GRIN2A, Q12879], the pKd result was “below the threshold”.

As to QSPANIYYKV [EFNB1, P52799], the negative logarithm of the Kd (pKd) entry is “below the threshold”.

On to TASPAKETSF [SLC2A7, Q6PXP3], for which the negative-log Kd (pKd) result is on record as “below the threshold”.

Take TLPRKRMSSI [GPRC6A, Q5T6X5]: the pKd result was “below the threshold”.

For the molecule VKPQVSESKL [ACOT8, O14734], the pKd result was “below the threshold”.

For the molecule SNAGNTATKA [NOSTRIN, Q8IVI9], the pKd result was “below the threshold”.

As for YNNCLEILRV [DCAF7, P61962], the pKd result is on record as “below the threshold”.

In the case of PEYLGLDVPV [ERBB2, P04626], the pKd is 3.72.

In the case of RKPKPSSSCC [RAB9A, P51151], the pKd entry is listed as “below the threshold”.

SARSRLSSNL [HCN2, Q9UL51]: the pKd result was “below the threshold”.

As for KKAPTNEFYA [SDC4, P31431], the pKd result is listed as “below the threshold”.

TACCHSETVV [TGFA, P01135]: the pKd entry was “below the threshold”.

As to GSGAVEMESV [AQP6, Q13520], the pKd entry is given as “below the threshold”.

As for RRLPGKETMA [GRIK2, Q13002], the pKd result is “below the threshold”.

With LGRSTPQSEV [DGKH, Q86XP1], the pKd entry is recorded as “below the threshold”.

As for FNSYSLTGYV [CLDN2, P57739], the pKd entry is “below the threshold”.

PPYRHRNTVV [ERBB4, Q15303]: the pKd result is listed as “below the threshold”.

For the molecule LKVPPEERLI [CRB2, Q5IJ48], the pKd result is “below the threshold”.

TKGPRGPTRV [SAPCD1, Q5SSQ6]: the negative logarithm of the Kd (pKd) entry was “below the threshold”.

As to AKPSRISTVV [IQSEC2, Q5JU85], the pKd was 3.51.

For a further experiment, the target named is T2, PCLO, Q9Y6V0. Kind of experiment: holdup assay. More on the design: key: below the threshold = too weak to quantify, mostly under pKd 3.1 to 4. The settings on record: plain residues with an end cap or a label only (N-terminal biotin on a linker: ado-ado).
For the molecule EKKTLIGIKL [GOT1L1, Q8NHS2], the pKd entry is given as “below the threshold”.

QSARLWETSI [ADAM22, Q9P0K1]: the negative-log Kd (pKd) entry is recorded as “below the threshold”.

On to IKAIVDLTGL [TRAF2, Q12933], for which the pKd result was “below the threshold”.

In the case of PRAEAEDSFL [PDGFRB, P09619], the negative logarithm of the Kd (pKd) entry is “below the threshold”.

As to EALLQMESVA [CAVIN3, Q969G5], the pKd result is “below the threshold”.

Turning to HSGYRLNDYV [CLDN14, O95500], the pKd entry is on record as “below the threshold”.

As to TSSMRGMDAV [RSRC2, Q7L4I2], the pKd result is recorded as “below the threshold”.

Consider MLSKQSESAI [FLVCR1, Q9Y5Y0], for which the pKd entry is “below the threshold”.

As to TSQESEDTYL [TBC1D10A, Q9BXI6], the negative-log Kd (pKd) entry is “below the threshold”.

SGSLKLMTTV [DACT1, Q9NYF0]: the pKd result is given as “below the threshold”.

ETQVTAETVI [TMEM225B, P0DP42]: the pKd result is “below the threshold”.

Turning to YRLAQESGLV [ABCC6, O95255], the pKd entry is “below the threshold”.

As to CLREWCDAFL [BANF1, O75531], the pKd result is reported as “below the threshold”.

On to RRISSLESEV [GRIN2C, Q14957], for which the pKd result is listed as “below the threshold”.

In the case of QGPVETESVV [SLC45A4, Q5BKX6], the negative-log Kd (pKd) result is listed as “below the threshold”.

For SAAKVLTSMC [GHRHR, Q02643], the negative-log Kd (pKd) entry was “below the threshold”.

In the case of DDENIRTSDV [PLEKHA2, Q9HB19], the pKd result is “below the threshold”.

As to KKMPSIESDV [GRIN2A, Q12879], the pKd entry is given as “below the threshold”.

For QSPANIYYKV [EFNB1, P52799], the pKd result was “below the threshold”.

Consider TASPAKETSF [SLC2A7, Q6PXP3], for which the pKd entry is on record as “below the threshold”.

As to TLPRKRMSSI [GPRC6A, Q5T6X5], the pKd entry is listed as “below the threshold”.

In the case of VKPQVSESKL [ACOT8, O14734], the pKd result is “below the threshold”.

In the case of SNAGNTATKA [NOSTRIN, Q8IVI9], the pKd entry is “below the threshold”.

As for YNNCLEILRV [DCAF7, P61962], the negative-log Kd (pKd) entry is listed as “below the threshold”.

Regarding PEYLGLDVPV [ERBB2, P04626], the pKd entry is “below the threshold”.

For RKPKPSSSCC [RAB9A, P51151], the pKd result is “below the threshold”.

With SARSRLSSNL [HCN2, Q9UL51], the pKd result was “below the threshold”.

In the case of KKAPTNEFYA [SDC4, P31431], the pKd result was “below the threshold”.

As for TACCHSETVV [TGFA, P01135], the pKd result is on record as “below the threshold”.

On to GSGAVEMESV [AQP6, Q13520], for which the pKd result was “below the threshold”.

As to RRLPGKETMA [GRIK2, Q13002], the pKd result is “below the threshold”.

For the molecule LGRSTPQSEV [DGKH, Q86XP1], the pKd entry is recorded as “below the threshold”.

In the case of FNSYSLTGYV [CLDN2, P57739], the pKd entry is “below the threshold”.

As for PPYRHRNTVV [ERBB4, Q15303], the pKd entry was “below the threshold”.

As to LKVPPEERLI [CRB2, Q5IJ48], the pKd result is listed as “below the threshold”.

On to TKGPRGPTRV [SAPCD1, Q5SSQ6], for which the pKd entry is on record as “below the threshold”.

For the molecule AKPSRISTVV [IQSEC2, Q5JU85], the pKd entry was “below the threshold”.
